# Data: patent US5780265A, “Kunitz type plasma kallikrein inhibitors” (Genentech, Inc., priority 1995, dated 1998)
# Where two headings read alike, the source gives them in different places. Bridges are numbered along the chain shown (N, C = ends). Where no end group is shown, it is not given here.
# Experiments:
# plasma kallikrein [1] = target: T1, plasma kallikrein (Homo sapiens, UniProt P03952); assay: Apparent equilibrium dissociation constant (Ki*) with plasma kallikrein; format: biochemical
# T1 construct: Human plasma kallikrein and Factor XIIa were purchased; purchased Enzyme Research Laboratories, Inc. (South Bend, Ind.)
# Description: Reactions (200 μL) were carried out in microtiter plates and the rate substrate (0.7 mM S2302) was monitored at 405 nm following a 1.5 h incubation. Plots of the fractional rate versus inhibitor concentration were fit by nonlinear regression analysis to Equation 1 to determine apparent equilibrium dissociation constants (Ki *):
# plasmin = target: T2, plasmin (Homo sapiens, UniProt P00747); assay: Specificity assay, plasmin; format: biochemical; conditions: 100 nM inhibitor; for fraction of remaining proteolytic activity, plasmin: plasmin 32 nM, 0.7 mM S2251
# T2 construct: Human plasmin, S-2302, S-2251, and S-2366 were purchased from Kabi Vitrum (Sweden); purchased Kabi Vitrum (Sweden)
# Description: (§1) Aliquots (30 μL) of various inhibitors diluted to 500 nM were incubated with each protease (100 μL) in the appropriate buffer. After incubation of the substrate/inhibitor mixes at room temperature for 2 h, the appropriate substrate (20 μL) was added, and the absorbance at 405 nm was monitored. […] The FXIa assay also contained 1 mg/mL BSA. The concentration of FXIa throughout refers to the concentration of active sites. For this experiment, the concentrations of thrombin, TF-FVIIa, FXa, FXIa, FXIIa, and plasmin are approximate and are determined based upon the manufacturers' specifications.
# (§2) Serine proteases (1 to 20 nM) were assayed in the presence of 100 nM inhibitor. […] The degree to which FXIa was inhibited by selected inhibitors including the consensus mutants was further investigated by measuring the Ki *.
# Factor XIa [2] = target: T3, Factor XIa (Homo sapiens, UniProt P03951); assay: Specificity assay, Factor XIa; format: biochemical; conditions: 100 nM inhibitor; FXIa […], 0.7 mM S2366, 1 mg/mL BSA
# T3 construct: purchased Haematologic Technologies Inc. (Essex Jct., Vt.)
# Description: as §1, §2
# Factor XIIa = target: T4, Factor XIIa (Homo sapiens, UniProt P00748); assay: Specificity assay, Factor XIIa; format: biochemical; conditions: 100 nM inhibitor; 0.7 mM S2302
# T4 construct: purchased Enzyme Research Laboratories, Inc. (South Bend, Ind.)
# T4 sequence (P00748 373-615 limits assumed): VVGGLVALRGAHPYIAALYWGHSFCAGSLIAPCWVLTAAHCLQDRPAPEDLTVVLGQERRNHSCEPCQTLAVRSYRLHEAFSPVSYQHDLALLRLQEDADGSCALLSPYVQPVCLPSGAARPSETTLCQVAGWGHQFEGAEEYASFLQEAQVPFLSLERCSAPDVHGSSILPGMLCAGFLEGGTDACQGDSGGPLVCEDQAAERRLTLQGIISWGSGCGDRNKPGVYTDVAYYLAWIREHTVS
# T4 sequence (P00748 20-372 limits assumed): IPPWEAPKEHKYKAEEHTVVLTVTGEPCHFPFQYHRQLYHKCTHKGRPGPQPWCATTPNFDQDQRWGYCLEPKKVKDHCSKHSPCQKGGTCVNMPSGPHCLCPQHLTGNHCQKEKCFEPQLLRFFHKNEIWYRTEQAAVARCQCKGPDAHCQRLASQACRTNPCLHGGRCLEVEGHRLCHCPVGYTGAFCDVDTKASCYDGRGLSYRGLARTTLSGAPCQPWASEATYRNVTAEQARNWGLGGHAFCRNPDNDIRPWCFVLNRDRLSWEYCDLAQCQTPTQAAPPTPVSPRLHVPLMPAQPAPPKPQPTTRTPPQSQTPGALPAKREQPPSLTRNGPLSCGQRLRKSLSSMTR
# Description: (§3) Aliquots (30 μL) of various inhibitors diluted to 500 nM were incubated with each protease (100 μL) in the appropriate buffer. After incubation of the substrate/inhibitor mixes at room temperature for 2 h, the appropriate substrate (20 μL) was added, and the absorbance at 405 nm was monitored. […] For this experiment, the concentrations of thrombin, TF-FVIIa, FXa, FXIa, FXIIa, and plasmin are approximate and are determined based upon the manufacturers' specifications.
# (§4) Serine proteases (1 to 20 nM) were assayed in the presence of 100 nM inhibitor.
# [3] = target: T5, TF-FVIIa (tissue factor-Factor VIIa) (Homo sapiens, UniProt P08709); assay: Specificity assay, TF-FVIIa; format: biochemical; conditions: 100 nM inhibitor; TF 77 nM-FVIIa 14 nM, 0.7 mM S2366
# T5 construct: purchased Haematologic Technologies Inc. (FVIIa); TF made in house; host or cells: E. coli (TF 1-243)
# Description: as §1, §2
# plasma kallikrein [4] = target: T1, plasma kallikrein; assay: Specificity assay, plasma kallikrein; format: biochemical; conditions: 100 nM inhibitor; plasma kallikrein 3.5 nM, 0.7 mM S2302; 2 h room temperature
# Description: as §1, §2
# thrombin = target: T6, thrombin (Homo sapiens, UniProt P00734); assay: Specificity assay, thrombin; format: biochemical; conditions: 100 nM inhibitor; thrombin 6.2 nM, 0.7 mM S2366
# T6 construct: purchased Haematologic Technologies Inc. (Essex Jct., Vt.)
# Description: as §3, §4
# Factor Xa = target: T7, Factor Xa (Homo sapiens, UniProt P00742); assay: Specificity assay, Factor Xa; format: biochemical; conditions: 100 nM inhibitor; FXa 2.5 nM, 0.7 mM Spectrozyme fXa
# T7 construct: purchased Haematologic Technologies Inc. (Essex Jct., Vt.)
# Description: as §3, §4
# activated protein C = target: T8, activated protein C (Homo sapiens, UniProt P04070); assay: Specificity assay, activated protein C; format: biochemical; conditions: 100 nM inhibitor; activated protein C 7.6 nM, 0.7 mM S2366
# T8 construct: purchased Haematologic Technologies Inc. (Essex Jct., Vt.)
# Description: as §1, §2
# Factor XIa [5] = target: T3, Factor XIa; assay: Apparent equilibrium dissociation constant (Ki*) with FXIa; format: biochemical; conditions: at least 3 independent measurements
# Description: as §2
# plasma kallikrein [6] = conditions: Seymour et al. 1994; read-out: Ki for plasma kallikrein (literature); cited from earlier work
# [7] = 25° C., pH 7.5, 0.7 mM S2302, 1.5 h incubation, at least 3 independent measurements, read-out: Plasma Kallikrein Ki*
# T1 sequence (P03952 391-638 limits assumed): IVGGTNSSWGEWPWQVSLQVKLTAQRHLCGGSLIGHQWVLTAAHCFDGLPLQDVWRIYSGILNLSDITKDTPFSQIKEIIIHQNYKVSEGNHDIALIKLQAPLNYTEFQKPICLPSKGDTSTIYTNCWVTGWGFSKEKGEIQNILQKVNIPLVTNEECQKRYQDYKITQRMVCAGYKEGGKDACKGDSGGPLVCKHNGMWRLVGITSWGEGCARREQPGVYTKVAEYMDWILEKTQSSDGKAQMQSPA
# T1 sequence (P03952 20-390 limits assumed): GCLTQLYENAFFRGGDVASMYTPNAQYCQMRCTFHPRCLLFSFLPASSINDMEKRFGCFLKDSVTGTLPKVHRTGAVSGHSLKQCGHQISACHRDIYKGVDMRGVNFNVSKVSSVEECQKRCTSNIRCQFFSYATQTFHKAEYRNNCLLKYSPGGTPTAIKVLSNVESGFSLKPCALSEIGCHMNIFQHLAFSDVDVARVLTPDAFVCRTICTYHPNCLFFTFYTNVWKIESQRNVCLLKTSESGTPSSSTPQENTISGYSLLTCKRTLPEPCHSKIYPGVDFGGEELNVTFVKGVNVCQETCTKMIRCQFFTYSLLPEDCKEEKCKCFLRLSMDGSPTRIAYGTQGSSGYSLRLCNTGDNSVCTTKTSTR
# T2 sequence (P00747 581-810 limits assumed): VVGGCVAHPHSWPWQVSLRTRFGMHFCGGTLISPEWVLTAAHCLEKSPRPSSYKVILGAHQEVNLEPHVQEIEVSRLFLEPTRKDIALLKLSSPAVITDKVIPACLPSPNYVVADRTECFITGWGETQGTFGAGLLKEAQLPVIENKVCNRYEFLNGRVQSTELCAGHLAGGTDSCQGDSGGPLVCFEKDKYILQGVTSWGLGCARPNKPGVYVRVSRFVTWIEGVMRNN
# T2 sequence (P00747 97-580 limits assumed): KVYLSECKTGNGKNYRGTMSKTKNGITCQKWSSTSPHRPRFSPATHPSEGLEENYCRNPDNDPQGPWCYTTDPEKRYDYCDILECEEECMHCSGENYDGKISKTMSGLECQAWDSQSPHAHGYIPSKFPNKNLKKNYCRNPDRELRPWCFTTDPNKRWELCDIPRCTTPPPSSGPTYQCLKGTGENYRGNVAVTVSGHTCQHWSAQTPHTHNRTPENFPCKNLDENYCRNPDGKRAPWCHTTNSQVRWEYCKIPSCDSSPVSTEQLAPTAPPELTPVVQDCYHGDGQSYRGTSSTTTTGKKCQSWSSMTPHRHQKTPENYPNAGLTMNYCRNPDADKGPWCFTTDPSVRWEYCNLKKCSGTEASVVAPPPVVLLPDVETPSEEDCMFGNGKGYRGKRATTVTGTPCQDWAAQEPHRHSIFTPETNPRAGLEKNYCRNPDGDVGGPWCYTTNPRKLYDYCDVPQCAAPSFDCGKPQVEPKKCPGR
# T5 sequence (P08709 213-466 limits assumed): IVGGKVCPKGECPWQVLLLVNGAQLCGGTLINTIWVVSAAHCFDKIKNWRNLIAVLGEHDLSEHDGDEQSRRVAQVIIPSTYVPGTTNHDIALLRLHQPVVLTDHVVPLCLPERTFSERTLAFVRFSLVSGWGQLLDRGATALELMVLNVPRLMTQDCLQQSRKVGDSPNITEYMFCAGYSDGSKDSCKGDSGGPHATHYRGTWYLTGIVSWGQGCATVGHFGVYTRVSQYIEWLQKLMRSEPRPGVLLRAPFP
# T5 sequence (P08709 61-212 limits assumed): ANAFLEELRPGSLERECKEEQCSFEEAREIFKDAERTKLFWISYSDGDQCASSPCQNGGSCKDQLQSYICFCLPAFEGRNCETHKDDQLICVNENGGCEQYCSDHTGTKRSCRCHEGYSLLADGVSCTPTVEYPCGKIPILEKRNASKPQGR
# T5 sequence (P13726 33-275 partner limits assumed): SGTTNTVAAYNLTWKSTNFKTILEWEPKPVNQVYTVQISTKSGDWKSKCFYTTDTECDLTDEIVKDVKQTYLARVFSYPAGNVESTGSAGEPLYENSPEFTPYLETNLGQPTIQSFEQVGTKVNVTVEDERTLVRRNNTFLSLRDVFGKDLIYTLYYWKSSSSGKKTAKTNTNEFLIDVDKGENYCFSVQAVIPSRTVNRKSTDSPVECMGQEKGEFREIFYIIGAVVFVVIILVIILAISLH
# T7 sequence (P00742 235-488 limits assumed): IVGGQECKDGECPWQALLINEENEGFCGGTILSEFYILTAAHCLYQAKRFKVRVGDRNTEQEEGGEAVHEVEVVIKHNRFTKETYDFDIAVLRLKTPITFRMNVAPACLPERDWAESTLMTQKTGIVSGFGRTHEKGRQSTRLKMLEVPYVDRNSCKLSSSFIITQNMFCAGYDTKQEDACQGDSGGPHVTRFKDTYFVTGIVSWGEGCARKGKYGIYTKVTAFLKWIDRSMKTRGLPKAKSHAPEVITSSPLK
# T7 sequence (P00742 41-179 limits assumed): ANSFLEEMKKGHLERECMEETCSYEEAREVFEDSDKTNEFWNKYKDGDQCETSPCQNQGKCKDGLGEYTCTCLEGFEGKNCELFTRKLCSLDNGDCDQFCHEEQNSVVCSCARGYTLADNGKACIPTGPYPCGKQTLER
# T8 sequence (P04070 212-461 limits assumed): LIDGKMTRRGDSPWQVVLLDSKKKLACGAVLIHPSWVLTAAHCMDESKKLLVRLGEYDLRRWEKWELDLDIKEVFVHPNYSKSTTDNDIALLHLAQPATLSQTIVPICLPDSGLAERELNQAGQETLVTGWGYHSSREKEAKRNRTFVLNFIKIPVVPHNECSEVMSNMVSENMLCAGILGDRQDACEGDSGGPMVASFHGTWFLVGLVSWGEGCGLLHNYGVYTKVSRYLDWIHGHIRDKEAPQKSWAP
# T8 sequence (P04070 43-197 limits assumed): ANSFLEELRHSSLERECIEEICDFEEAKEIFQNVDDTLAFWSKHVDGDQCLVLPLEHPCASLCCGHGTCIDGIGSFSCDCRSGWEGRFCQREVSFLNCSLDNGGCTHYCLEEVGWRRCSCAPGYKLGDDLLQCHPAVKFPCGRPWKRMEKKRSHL
# T3 sequence (P03951 388-625 limits assumed): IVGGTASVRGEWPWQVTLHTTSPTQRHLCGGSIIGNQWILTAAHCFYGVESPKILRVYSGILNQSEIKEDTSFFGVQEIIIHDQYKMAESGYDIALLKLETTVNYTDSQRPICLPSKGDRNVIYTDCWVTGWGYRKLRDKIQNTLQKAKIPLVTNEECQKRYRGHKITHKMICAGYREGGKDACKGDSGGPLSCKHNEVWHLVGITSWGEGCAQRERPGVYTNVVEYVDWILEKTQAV
# T3 sequence (P03951 19-387 limits assumed): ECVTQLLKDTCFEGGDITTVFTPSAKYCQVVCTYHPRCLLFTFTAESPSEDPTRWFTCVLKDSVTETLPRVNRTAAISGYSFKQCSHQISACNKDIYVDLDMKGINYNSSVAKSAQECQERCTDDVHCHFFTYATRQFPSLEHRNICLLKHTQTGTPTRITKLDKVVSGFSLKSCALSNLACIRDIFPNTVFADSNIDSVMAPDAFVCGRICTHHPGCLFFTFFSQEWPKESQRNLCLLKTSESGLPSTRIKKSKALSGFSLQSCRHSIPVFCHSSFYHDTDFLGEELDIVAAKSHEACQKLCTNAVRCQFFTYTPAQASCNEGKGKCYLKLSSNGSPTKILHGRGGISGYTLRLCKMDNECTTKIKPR
Compound,Ki (plasma kallikrein [1]; [7]) [pM],"fraction of remaining proteolytic activity, plasmin (plasmin)","fraction of remaining proteolytic activity, Factor XIa (Factor XIa [2])","fraction of remaining proteolytic activity, Factor XIIa (Factor XIIa)","fraction of remaining proteolytic activity, TF · Factor VIIa [3]","fraction of remaining proteolytic activity, plasma kallikrein (plasma kallikrein [4])","fraction of remaining proteolytic activity, thrombin (thrombin)","fraction of remaining proteolytic activity, Factor Xa (Factor Xa)","fraction of remaining proteolytic activity, activated protein C (activated protein C)",Ki (Factor XIa [5]) [pM],further results
CC(C)[C@H](N)C(=O)N[C@@H](CCCNC(=N)N)C(=O)N[C@@H](CCC(=O)O)C(=O)N[C@H](C(=O)N[C@H]1CSSC[C@@H](C(=O)NCC(=O)N[C@@H](CO)C(=O)N[C@@H](C)C(=O)O)NC(=O)[C@H](C(C)C)NC(=O)[C@H](C)NC(=O)[C@H](C)NC(=O)[C@@H]2CSSC[C@@H]3NC(=O)[C@H](CCCCN)NC(=O)CNC(=O)[C@H](CCC(=O)O)NC(=O)[C@H]([C@@H](C)O)NC(=O)[C@H](C(C)C)NC(=O)[C@H](CC(=O)O)NC(=O)[C@H](Cc4ccccc4)NC(=O)[C@H](Cc4ccc(O)cc4)NC(=O)[C@H](Cc4c[nH]c5ccccc45)NC(=O)[C@H](CCCNC(=N)N)NC(=O)[C@@H]4CCCN4C(=O)[C@H](Cc4c[nH]cn4)NC(=O)[C@H](C)NC(=O)[C@H](C)NC(=O)[C@H](CCCNC(=N)N)NC(=O)[C@H](CSSC[C@H](NC(=O)CNC(=O)CNC(=O)[C@H](Cc4ccc(O)cc4)NC(=O)[C@H](C(C)C)NC(=O)[C@H](Cc4ccccc4)NC(=O)[C@@H]4CCCN4C(=O)[C@H](C)NC3=O)C(=O)NCC(=O)NCC(=O)N[C@@H](CC(N)=O)C(=O)N[C@@H](CCCNC(=N)N)C(=O)N[C@@H](CC(N)=O)C(=O)N[C@@H](CC(N)=O)C(=O)N[C@@H](Cc3ccccc3)C(=O)N[C@@H](CC(=O)O)C(=O)N[C@@H]([C@@H](C)O)C(=O)N[C@@H](CCC(=O)O)C(=O)N[C@@H](CCC(=O)O)C(=O)N[C@@H](Cc3ccc(O)cc3)C(=O)N2)NC(=O)[C@H](Cc2c[nH]cn2)NC(=O)CNC(=O)[C@H](CCC(=O)O)NC(=O)[C@H](CCC(=O)O)NC(=O)[C@H](C)NC(=O)[C@H](CCC(N)=O)NC(=O)[C@H](CCC(=O)O)NC(=O)[C@H](CO)NC1=O)C(C)C [KALI-EV],117 ± 59,–,–,–,–,–,–,–,–,–,–
"KALI-8: APPI Kunitz domain mutant, R1 LGHCRAAIPR2 FR3 (SEQ ID NO: 3) (VREVCSEQAELGHCRAAIPRWYFDVTEGKCAPFFYGGCGGNRNNFDTEEYCAAVCGSA)",–,0.83,0.00,1.00,0.94,0.00,0.99,1.13,0.89,–,–
"KALI-13: APPI Kunitz domain mutant, R1 SGHCRAAIPR2 FR3 (SEQ ID NO: 1) (VREVCSEQAESGHCRAAIPRWYFDVTEGKCAPFFYGGCGGNRNNFDTEEYCAAVCGSA)",–,0.65,0.01,1.00,0.96,0.00,0.96,0.97,0.90,–,–
"KALI-30: APPI Kunitz domain mutant, R1 EGHCRAAILR2 FR3 (SEQ ID NO: 5) (VREVCSEQAEEGHCRAAILRWYFDVTEGKCAPFFYGGCGGNRNNFDTEEYCAAVCGSA)",–,0.53,0.00,0.92,1.02,0.00,1.00,0.68,0.81,–,–
"KALI-46: APPI Kunitz domain mutant, R1 EGRCRASILR2 FR3 (SEQ ID NO: 33) (VREVCSEQAEEGRCRASILRWYFDVTEGKCAPFFYGGCGGNRNNFDTEEYCAAVCGSA)",–,0.64,0.00,0.97,0.86,0.00,0.99,1.02,0.83,–,–
"KALI-48: APPI Kunitz domain mutant, R1 TGHCRAAIPR2 FR3 (SEQ ID NO: 2) (VREVCSEQAETGHCRAAIPRWYFDVTEGKCAPFFYGGCGGNRNNFDTEEYCAAVCGSA)",–,0.23,0.01,0.99,0.95,0.00,0.99,0.55,0.92,–,inhibition of plasmin (plasmin): > 60%
"VREVCSEQAEDGHCRAAHPRWYFDVTEGKCAPFFYGGCGGNRNNFDTEEYCAAVCGSA (disulfide 5-55, 14-38, 30-51) [KALI-D]",25 ± 22,–,–,–,–,–,–,–,–,5700 ± 7000,–
"VREVCSEQAEDGHCRAAHPRWYFDVTEGKCAPFVYGGCGGNRNNFDTEEYCAAVCGSA (disulfide 5-55, 14-38, 30-51) [KALI-DV]",43 ± 34,–,–,–,–,–,–,–,–,1300 ± 1400,–
"VREVCSEQAEDGHCRAAHPRWYFDVTEGKCAPFYYGGCGGNRNNFDTEEYCAAVCGSA (disulfide 5-55, 14-38, 30-51) [KALI-DY]",–,–,–,–,–,–,–,–,–,8200 ± 3500,Ki (plasma kallikrein [1]; read-out: Ki* for plasma kallikrein): 15 ± 14 pM
"VREVCSEQAEEGHCRAAHPRWYFDVTEGKCAPFFYGGCGGNRNNFDTEEYCAAVCGSA (disulfide 5-55, 14-38, 30-51) [KALI-E]",103 ± 54,–,–,–,–,–,–,–,–,4500 ± 4000,–
"VREVCSEQAEEGHCRAAHPRWYFDVTEGKCAPFYYGGCGGNRNNFDTEEYCAAVCGSA (disulfide 5-55, 14-38, 30-51) [KALI-EY]",980 ± 75,–,–,–,–,–,–,–,–,7300 ± 5500,–
"VREVCSEQAEPGHCRAAHPRWYFDVTEGKCAPFFYGGCGGNRNNFDTEEYCAAVCGSA (disulfide 5-55, 14-38, 30-51) [KALI-P]",200 ± 99,–,–,–,–,–,–,–,–,13800 ± 17400,–
"VREVCSEQAEPGHCRAAHPRWYFDVTEGKCAPFVYGGCGGNRNNFDTEEYCAAVCGSA (disulfide 5-55, 14-38, 30-51) [KALI-PV]",166 ± 70,–,–,–,–,–,–,–,–,4100 ± 5200,–
"VREVCSEQAEPGHCRAAHPRWYFDVTEGKCAPFYYGGCGGNRNNFDTEEYCAAVCGSA (disulfide 5-55, 14-38, 30-51) [KALI-PY]",136 ± 81,–,–,–,–,–,–,–,–,11700 ± 11900,–
ecotin: a 142 residue protein from E. coli,–,–,–,–,–,–,–,–,–,–,Ki (plasma kallikrein [6]): ~160 pM
